# Laboratory results published in patent US20110217291A1.
# What was measured:
# [1] = target: human IgG1 antibody (Lambda from human myeloma plasma, Sigma-Aldrich) (human); test: SPR (Biacore), IgG1 immobilized at 485 RU, receptor as analyte
# [2] = target: human IgG1 antibody (Lambda from human myeloma plasma, Sigma-Aldrich) (human); test: SPR (Biacore 3000), IgG1 immobilized at 458 RU, receptor as analyte, 1:1 model
# [3] = target: IgG of IgG Sepharose 6 Fast Flow resin (GE Healthcare); test: batch binding of 293F conditioned media to IgG Sepharose, Western blot quantitation, n=2
# [4] = target: human IgG1 antibody (Lambda from human myeloma plasma, Sigma-Aldrich) (human); test: SPR (Biacore 3000), steady state, IgG1 immobilized at 1013 RU, receptor as analyte
# [5] = target: IgG of IgG Sepharose 6 Fast Flow resin (GE Healthcare); test: IgG-Sepharose column, purified protein, Western blot
# [6] = target: IgG of IgG Sepharose 6 Fast Flow resin (GE Healthcare); test: IgG-Sepharose column, 24 h CHO conditioned media, Western blot
# [7] = target: IgG of IgG Sepharose 6 Fast Flow resin (GE Healthcare); test: IgG-Sepharose column, one-day conditioned media of CHO cells at 37° C., Western blot
# Sequence of untagged recombinant soluble human FcγRIA (P12314 16-282): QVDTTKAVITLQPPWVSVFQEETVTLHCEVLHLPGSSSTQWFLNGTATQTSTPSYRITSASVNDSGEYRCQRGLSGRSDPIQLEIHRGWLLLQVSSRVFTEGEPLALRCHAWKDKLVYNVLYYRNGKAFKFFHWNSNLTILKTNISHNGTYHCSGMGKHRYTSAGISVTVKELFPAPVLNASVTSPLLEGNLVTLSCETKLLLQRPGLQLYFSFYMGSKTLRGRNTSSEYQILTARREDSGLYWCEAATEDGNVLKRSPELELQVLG
# Sequence of FcγRIA-CH6 (extracellular domain of human FcγRIA with a C-terminal six His tag) (P12314 other isoform, or with tags, fused parts or gaps): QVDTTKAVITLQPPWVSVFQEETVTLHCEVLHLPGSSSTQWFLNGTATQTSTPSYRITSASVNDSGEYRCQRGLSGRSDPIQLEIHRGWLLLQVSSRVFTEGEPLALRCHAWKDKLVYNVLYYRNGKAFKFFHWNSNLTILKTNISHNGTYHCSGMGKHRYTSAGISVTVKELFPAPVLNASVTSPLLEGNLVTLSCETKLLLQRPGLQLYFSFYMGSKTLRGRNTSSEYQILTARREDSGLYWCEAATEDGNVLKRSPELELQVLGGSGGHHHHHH
# Sequence of aggregated FcγRIA (purified soluble FcγRIA incubated at 37° C.) (P12314 16-282): as the sequence (P12314 16-282) above
# Sequence of FcγRIIIA-CH6 (soluble monomeric human FcγRIIIA extracellular domain with C-terminal His6 tag) (P08637 other isoform, or with tags, fused parts or gaps): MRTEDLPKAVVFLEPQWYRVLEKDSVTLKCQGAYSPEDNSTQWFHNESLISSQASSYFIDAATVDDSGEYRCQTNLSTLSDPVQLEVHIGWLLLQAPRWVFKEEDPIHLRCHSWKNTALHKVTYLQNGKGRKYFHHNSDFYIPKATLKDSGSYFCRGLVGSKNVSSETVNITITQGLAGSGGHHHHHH
substance,measurement,setting,value
FcγRIA-CH6 (extracellular domain of human FcγRIA with a C-terminal six His tag) (from UniProt P12314 16-282) (receptor),Kd,[1],0.17 nM
same,koff,[1],0.00046 s⁻¹
same,kon,[1],2.8e+06 M⁻¹ s⁻¹
same,Kd,[2],0.17 nM
same,koff,[2],0.00046 s⁻¹
same,kon,[2],2.8e+06 M⁻¹ s⁻¹
same,percent of total expressed in IgG Sepharose flow-through (aggregate amount),[3],66%
same,percent of total expressed recovered from IgG resin,[3],21%
FcγRIIA-CH6 (soluble monomeric human FcγRIIA extracellular domain with C-terminal His6 tag) (from UniProt P12318 34-212) (receptor),Kd,[4],1900 nM
FcγRIIIA-CH6 (soluble monomeric human FcγRIIIA extracellular domain with C-terminal His6 tag) (from UniProt P08637 18-195) (receptor),Kd,[4],630 nM
aggregated FcγRIA (purified soluble FcγRIA incubated at 37° C.) (from UniProt P12314 16-282) (receptor),percent of total in bound fraction,[5],4%
same,percent of total in unbound wash fraction,[5],96%
untagged recombinant soluble human FcγRIA (from UniProt P12314 16-282) (receptor),percent of total applied bound to IgG-Sepharose,[6],14%
same,percent of total applied in the wash (unbound),[6],86%
same,Kd,[1],0.17 nM
same,koff,[1],0.00046 s⁻¹
same,kon,[1],2.8e+06 M⁻¹ s⁻¹
same,percent of recovered protein bound and eluted,[7],20%
same,percent of recovered protein in unbound fraction,[7],80%
